# Measured values reported in patent US20260242478A1 (published 2026).
# Where no end group is shown, it is not given here.
# B1: Phage-2284 (peptide)
# peptide: MINWCTPAWMCTGF
# notes: tested as crude clonal phage supernatant
# B2: Phage-2283 (peptide)
# peptide: GGKWCKPSWMCFGM
# notes: as for B1
# B3: Phage-2296 (peptide)
# peptide: NVKWCTPPWMCFLD
# notes: as for B1
# B4: Phage-2288 (peptide)
# peptide: HVKWCTPAWMCVSN
# notes: as for B1
# B5: Phage-2294 (peptide)
# peptide: IHMLCSPPWMCVGL
# notes: as for B1
# B6: Phage-2293 (peptide)
# peptide: VEKWCIPPWMCVNS
# notes: as for B1
# B7: Phage-2289 (peptide)
# peptide: ELNWCTPPWMCNPM
# notes: as for B1
# B8: Phage-2297 (peptide)
# peptide: THKWCIPVWMCEHQ
# notes: as for B1
# B9: Phage-2295 (peptide)
# peptide: DVMWCIPPWMCEHR
# notes: as for B1
# B10: Phage-2285 (peptide)
# peptide: EPKWCIPQWMCERF
# notes: as for B1
# B11: Phage-2290 (peptide)
# peptide: VDKQCRPAWMCEIW
# notes: as for B1
# B12: Phage-2292 (peptide)
# peptide: NSNWCIPSWMCADI
# modifications: cysteine pairing not given here; also: displayed on bacteriophage by fusion to pIII
# notes: as for B1
# B13: Phage-2286 (peptide)
# peptide: AEKWCIPPWMCVND
# notes: as for B1
# B14: Phage-2287 (peptide)
# peptide: VEKWCTPRWMCEGF
# notes: as for B1
# B15: Phage-2291 (peptide)
# peptide: VEKWCIPAWMCQQS
# notes: as for B1
# B16: Phage-2329 (peptide)
# peptide: PEKWCIPPWMCTNF
# modifications: cysteine pairing not given here; also: displayed on bacteriophage by fusion to pIII
# B17: Phage-2298 (peptide)
# peptide: WENWCTPEWMCNGF
# modifications: cysteine pairing not given here; also: displayed on bacteriophage by fusion to pIII
# B18: Phage-2303 (peptide)
# peptide: LTKWCIPEWMCAVE
# modifications: cysteine pairing not given here; also: displayed on bacteriophage by fusion to pIII
# Molecular target: T1, Anti-PSMA Fab (SEQ ID NOs: 19, 20)
# T1 construct: Biotinylated and captured on neutravidin coated plates in the phage ELISA; also called 006 PSMA Fab
# Test: phage binding ELISA; clonal phage on plate-captured biotinylated PSMA Fab, anti-M13 HRP detection
# Description: (§1) Clonal phage were harvested as crude supernatants and screened via standard ELISAs. […] Prior to the addition of clonal phage. wells were incubated with blocking buffer and PSMA antigen or blocking buffer alone. Without washing or aspirating, clonal phage supernatants were then added to the wells and incubated for a short time. Wells were then washed followed by detection of bound phage using a horse radish conjugated anti-M13 antibody.
row,Binder,"Anti-PSMA Fab (SEQ ID NOs: 19, 20) signal"
1,B1,1.51
2,B2,1.51
3,B3,1.5
4,B4,1.51
5,B5,1.5
6,B6,1.5
7,B7,1.5
8,B8,1.5
9,B9,1.5
10,B10,1.51
11,B11,1.5
12,B12,1.5
13,B13,1.51
14,B14,1.51
15,B15,1.5

# Molecular target: T2, PSMA Fab (006 PSMA Fab) (biotinylated (site not stated))
# T2 construct: also called Anti-PSMA Fab
# Test: phage ELISA on captured PSMA Fab, wells pre-incubated with PSMA antigen as competitor
row,Binder,phage binding ELISA signal (Anti-PSMA Fab pre-incubated with PSMA antigen)
1,FEHWCTPEWMCLGM [Phage-2331],0.0623
2,VVNWCVPEWMCSGF [Phage-2332],0.0772
3,EVKWCTPSWMCSGL [Phage-2330],0.06
4,B16,0.065

# Molecular target: Anti-PSMA Fab (006 PSMA Fab)
# Test: clonal phage ELISA on biotinylated PSMA Fab captured on neutravidin; bound phage detected with anti-M13-HRP; no PSMA antigen
# Description: as §1
row,Binder,"Phage binding ELISA signal, Anti-PSMA Fab"
1,EAKWCTPPWMCMSM [Phage-2305],1.48
2,B17,1.49
3,VQNWCIPAWMCEGK [Phage-2304],1.48
4,MDNWCTPPWMCHGF [Phage-2299],1.49
5,PEKWCIPDWMCTVY [Phage-2311],1.48
6,IEKWCIPLWMCEMQ [Phage-2309],1.48
7,FANWCTPSWMCNFT [Phage-2302],1.48
8,MEIWCKPAWMCEST [Phage-2310],1.48
9,QNTWCIPPWMCEVF [Phage-2306],1.48
10,EWKWCTPPWMCQYE [Phage-2308],1.48
11,YDRLCIPMWMCSSV [Phage-2307],1.48
12,EFKMCIPQWMCQHQ [Phage-2312],1.47
13,WVQWCIPPWMCEPS [Phage-2300],1.49
14,B18,1.48
15,SMKWCTPAWMCERL [Phage-2301],1.49

# Molecular target: T1, Anti-PSMA Fab (SEQ ID NOs: 19, 20)
# Test: phage binding ELISA; plate-captured PSMA Fab pre-incubated with PSMA antigen as competitor, anti-M13 HRP detection
# Description: as §1
row,Binder,Anti-PSMA Fab signal in the presence of PSMA
1,B1,0.101
2,B2,0.108
3,B3,0.0656
4,B4,0.079
5,B5,0.0564
6,B6,0.0666
7,B7,0.0786
8,B8,0.0929
9,B9,0.106
10,B10,0.0654
11,B11,0.0653
12,B12,0.0741
13,B13,0.0683
14,B14,0.0841
15,B15,0.0698

# Molecular target: Anti-PSMA Fab (006 PSMA Fab)
# Test: clonal phage ELISA on biotinylated PSMA Fab captured on neutravidin; PSMA antigen as competitor; anti-M13-HRP detection
# Description: as §1
row,Binder,"phage binding ELISA signal (Anti-PSMA Fab, wells pre-incubated with PSMA antigen)"
1,EAKWCTPPWMCMSM [Phage-2305],0.0593
2,B17,0.0767
3,VQNWCIPAWMCEGK [Phage-2304],0.0686
4,MDNWCTPPWMCHGF [Phage-2299],0.0898
5,PEKWCIPDWMCTVY [Phage-2311],0.0815
6,IEKWCIPLWMCEMQ [Phage-2309],0.0726
7,FANWCTPSWMCNFT [Phage-2302],0.152
8,MEIWCKPAWMCEST [Phage-2310],0.0714
9,QNTWCIPPWMCEVF [Phage-2306],0.0806
10,EWKWCTPPWMCQYE [Phage-2308],0.0874
11,YDRLCIPMWMCSSV [Phage-2307],0.0715
12,EFKMCIPQWMCQHQ [Phage-2312],0.0622
13,WVQWCIPPWMCEPS [Phage-2300],0.14
14,B18,0.102
15,SMKWCTPAWMCERL [Phage-2301],0.115

# Molecular target: T2, PSMA Fab (006 PSMA Fab)
# Test: phage ELISA, clonal phage on biotinylated PSMA Fab captured on neutravidin plate, anti-M13 HRP detection;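 also: crude clonal phage supernatants added to wells preincubated with PSMA antigen in blocking buffer or with blocking buffer only, giving a competition and a no-competitor control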
# Description: as §1
row,Binder,"Phage binding ELISA signal, Anti-PSMA Fab"
1,FEHWCTPEWMCLGM [Phage-2331],1.45
2,VVNWCVPEWMCSGF [Phage-2332],1.45
3,EVKWCTPSWMCSGL [Phage-2330],1.45
4,B16,1.45
